Measurements: patent US20050282743A1, “Molecular interactions in cells” (Arbor Vita Corporation, priority 2001, published 2005)
Ends that are not written are not given here. Peptide text beside a SMILES is read from it. * marks the point of attachment. Biotin = O=C1N[C@H]2[C@H](CS[C@H]2CCCCC(=O)*)N1

Tests used:
Experiment in all cases: G' assay (10 uM PL peptide), results of TABLE 7 and TABLE 12
Assay type in all cases: binding
[1] = biological target: T1, PDZ protein (GST-PDZ fusion) (Homo sapiens, UniProt Q9Y566); settings: PDZ SHANK1, PDZ Domain 1
T1 construct: made in house; host or cells: E. coli (DH5alpha, BL21 or JM109)
Method in brief: (§1)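 Binding classes derive from A450 nm of bound biotin-tagged PL peptide. A score of 5 needs A450 above 4 in more than two repeats.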

[2] = biological target: T2, PDZ protein (GST-PDZ fusion) (Homo sapiens, UniProt Q8N3R9); settings: PDZ FLJ 12615 (PALS-1), PDZ Domain 1
T2 construct: made in house; host or cells: E. coli (DH5alpha, BL21 or JM109)
Method in brief: as §1

[3] = biological target: T3, PDZ protein (GST-PDZ fusion) (Homo sapiens, UniProt Q86UR5); settings: PDZ KIAA0340, PDZ Domain 1
T3 construct: made in house; host or cells: E. coli (DH5alpha, BL21 or JM109)
Method in brief: as §1

[4] = biological target: T4, PDZ protein (GST-PDZ fusion) (Homo sapiens, UniProt Q9H190)
T4 construct: made in house; host or cells: E. coli (DH5alpha, BL21 or JM109)
T4 sequence (Q9H190 1-292): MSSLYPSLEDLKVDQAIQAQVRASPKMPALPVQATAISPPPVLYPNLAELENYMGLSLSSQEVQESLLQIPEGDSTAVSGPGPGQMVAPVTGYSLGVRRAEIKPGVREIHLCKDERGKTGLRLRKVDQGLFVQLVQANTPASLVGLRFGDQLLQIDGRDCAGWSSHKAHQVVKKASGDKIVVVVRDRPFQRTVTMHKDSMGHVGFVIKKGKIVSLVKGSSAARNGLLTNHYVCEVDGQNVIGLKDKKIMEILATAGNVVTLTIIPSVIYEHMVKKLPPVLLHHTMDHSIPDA
Method in brief: as §1

[5] = biological target: T5, PDZ protein (GST-PDZ fusion) (Homo sapiens, UniProt Q9H6Y5); settings: PDZ FLJ21687, PDZ Domain 1
T5 construct: made in house; host or cells: E. coli (DH5alpha, BL21 or JM109)
T5 sequence (Q9H6Y5 1-334): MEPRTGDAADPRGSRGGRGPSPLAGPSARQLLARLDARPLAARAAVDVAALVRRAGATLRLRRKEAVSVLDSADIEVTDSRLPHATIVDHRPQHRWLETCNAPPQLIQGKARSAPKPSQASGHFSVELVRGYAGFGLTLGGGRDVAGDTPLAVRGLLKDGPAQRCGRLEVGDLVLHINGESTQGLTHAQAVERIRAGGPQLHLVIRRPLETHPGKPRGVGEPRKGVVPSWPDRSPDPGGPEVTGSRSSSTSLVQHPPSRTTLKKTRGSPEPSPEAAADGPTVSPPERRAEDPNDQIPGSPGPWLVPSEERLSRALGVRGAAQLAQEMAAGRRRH
Method in brief: as §1

[6] = biological target: T6, PDZ protein (GST-PDZ fusion) (Homo sapiens, UniProt Q9NZW5); settings: PDZ P55T, PDZ Domain 1
T6 construct: made in house; host or cells: E. coli (DH5alpha, BL21 or JM109)
T6 sequence (Q9NZW5 1-540): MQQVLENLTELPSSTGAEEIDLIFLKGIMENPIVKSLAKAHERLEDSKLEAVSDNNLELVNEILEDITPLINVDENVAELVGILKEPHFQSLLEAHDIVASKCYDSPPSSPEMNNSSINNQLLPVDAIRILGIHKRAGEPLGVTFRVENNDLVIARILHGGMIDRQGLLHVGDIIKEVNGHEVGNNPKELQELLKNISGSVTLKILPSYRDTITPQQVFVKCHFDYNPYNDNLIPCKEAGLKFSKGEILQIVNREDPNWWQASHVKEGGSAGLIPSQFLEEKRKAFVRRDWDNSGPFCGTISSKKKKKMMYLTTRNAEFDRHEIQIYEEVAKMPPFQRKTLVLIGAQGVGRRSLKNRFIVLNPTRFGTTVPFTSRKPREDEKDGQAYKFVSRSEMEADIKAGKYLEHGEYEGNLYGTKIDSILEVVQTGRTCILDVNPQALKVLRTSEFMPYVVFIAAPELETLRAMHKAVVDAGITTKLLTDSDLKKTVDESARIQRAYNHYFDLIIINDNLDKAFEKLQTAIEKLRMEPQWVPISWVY
Method in brief: as §1

T2 sequence (Q8N3R9 whole entry, the tested form may be a part): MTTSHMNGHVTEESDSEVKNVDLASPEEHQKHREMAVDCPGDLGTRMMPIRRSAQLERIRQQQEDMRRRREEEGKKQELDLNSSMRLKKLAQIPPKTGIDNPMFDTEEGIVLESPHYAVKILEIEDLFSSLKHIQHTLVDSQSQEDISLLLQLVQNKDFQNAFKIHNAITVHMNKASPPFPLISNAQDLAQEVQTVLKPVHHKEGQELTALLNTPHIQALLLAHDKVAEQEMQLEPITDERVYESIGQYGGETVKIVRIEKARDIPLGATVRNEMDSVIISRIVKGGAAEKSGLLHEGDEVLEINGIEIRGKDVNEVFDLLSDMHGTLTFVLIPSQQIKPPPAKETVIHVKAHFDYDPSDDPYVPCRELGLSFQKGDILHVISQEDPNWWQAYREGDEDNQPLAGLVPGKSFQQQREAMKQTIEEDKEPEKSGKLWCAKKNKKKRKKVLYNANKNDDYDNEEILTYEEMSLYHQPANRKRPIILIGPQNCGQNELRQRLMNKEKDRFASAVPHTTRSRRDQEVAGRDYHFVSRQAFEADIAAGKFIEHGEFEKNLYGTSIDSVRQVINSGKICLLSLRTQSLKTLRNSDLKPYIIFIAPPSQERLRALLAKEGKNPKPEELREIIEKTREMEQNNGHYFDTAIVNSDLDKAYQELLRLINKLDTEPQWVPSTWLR
T1 sequence (Q9Y566 whole entry, the tested form may be a part): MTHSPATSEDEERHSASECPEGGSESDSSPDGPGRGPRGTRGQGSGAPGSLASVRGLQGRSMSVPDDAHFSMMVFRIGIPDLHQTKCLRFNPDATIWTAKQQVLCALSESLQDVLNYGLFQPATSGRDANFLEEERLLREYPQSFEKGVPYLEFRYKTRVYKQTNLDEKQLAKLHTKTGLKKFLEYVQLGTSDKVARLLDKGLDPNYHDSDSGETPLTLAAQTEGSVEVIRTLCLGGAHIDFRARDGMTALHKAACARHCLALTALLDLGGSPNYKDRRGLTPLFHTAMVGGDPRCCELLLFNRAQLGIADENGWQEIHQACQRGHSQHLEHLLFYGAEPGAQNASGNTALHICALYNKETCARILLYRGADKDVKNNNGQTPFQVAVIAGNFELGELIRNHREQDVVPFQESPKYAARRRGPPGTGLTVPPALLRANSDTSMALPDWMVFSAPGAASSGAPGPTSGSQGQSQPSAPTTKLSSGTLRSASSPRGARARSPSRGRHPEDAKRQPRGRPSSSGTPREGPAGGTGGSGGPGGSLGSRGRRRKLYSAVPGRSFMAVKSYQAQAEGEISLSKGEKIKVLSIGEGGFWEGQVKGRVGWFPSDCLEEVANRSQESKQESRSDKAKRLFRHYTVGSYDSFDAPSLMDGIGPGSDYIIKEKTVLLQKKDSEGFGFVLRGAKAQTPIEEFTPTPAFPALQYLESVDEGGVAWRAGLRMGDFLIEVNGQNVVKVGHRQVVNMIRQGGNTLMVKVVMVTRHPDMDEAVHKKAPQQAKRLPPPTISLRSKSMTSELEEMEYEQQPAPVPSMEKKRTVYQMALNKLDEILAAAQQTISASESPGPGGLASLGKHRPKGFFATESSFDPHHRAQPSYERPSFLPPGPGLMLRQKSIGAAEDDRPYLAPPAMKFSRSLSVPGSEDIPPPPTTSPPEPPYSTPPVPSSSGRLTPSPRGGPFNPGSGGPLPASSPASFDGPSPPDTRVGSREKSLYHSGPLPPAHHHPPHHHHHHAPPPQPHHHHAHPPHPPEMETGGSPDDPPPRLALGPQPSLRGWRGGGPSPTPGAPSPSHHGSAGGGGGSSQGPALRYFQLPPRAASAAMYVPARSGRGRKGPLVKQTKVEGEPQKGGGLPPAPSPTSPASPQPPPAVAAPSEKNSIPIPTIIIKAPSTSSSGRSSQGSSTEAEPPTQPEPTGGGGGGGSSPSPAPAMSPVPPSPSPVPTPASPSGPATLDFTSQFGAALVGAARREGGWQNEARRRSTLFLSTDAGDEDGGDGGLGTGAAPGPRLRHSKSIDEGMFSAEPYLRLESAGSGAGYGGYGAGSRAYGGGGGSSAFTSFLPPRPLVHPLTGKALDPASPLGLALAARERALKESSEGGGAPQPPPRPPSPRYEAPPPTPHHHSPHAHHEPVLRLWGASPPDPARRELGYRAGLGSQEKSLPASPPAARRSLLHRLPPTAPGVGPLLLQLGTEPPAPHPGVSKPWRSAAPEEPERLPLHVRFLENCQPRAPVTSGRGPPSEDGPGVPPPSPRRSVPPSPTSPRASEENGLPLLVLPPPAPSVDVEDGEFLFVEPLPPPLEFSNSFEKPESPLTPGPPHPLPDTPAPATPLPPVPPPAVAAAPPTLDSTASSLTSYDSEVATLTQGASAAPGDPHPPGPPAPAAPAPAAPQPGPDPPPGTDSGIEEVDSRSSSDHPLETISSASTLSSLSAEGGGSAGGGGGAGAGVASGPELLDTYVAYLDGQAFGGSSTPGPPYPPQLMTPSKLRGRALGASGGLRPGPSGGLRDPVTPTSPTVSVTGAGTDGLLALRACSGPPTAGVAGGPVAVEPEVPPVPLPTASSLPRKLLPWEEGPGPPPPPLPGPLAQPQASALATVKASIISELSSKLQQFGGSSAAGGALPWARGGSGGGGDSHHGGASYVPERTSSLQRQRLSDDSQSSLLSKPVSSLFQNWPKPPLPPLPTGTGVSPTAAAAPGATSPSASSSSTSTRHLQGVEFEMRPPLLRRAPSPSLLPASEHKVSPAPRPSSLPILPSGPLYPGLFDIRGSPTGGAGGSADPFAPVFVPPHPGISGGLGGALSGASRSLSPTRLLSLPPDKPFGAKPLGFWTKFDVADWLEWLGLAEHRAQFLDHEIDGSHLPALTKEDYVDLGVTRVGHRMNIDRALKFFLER
T3 sequence (Q86UR5 whole entry, the tested form may be a part): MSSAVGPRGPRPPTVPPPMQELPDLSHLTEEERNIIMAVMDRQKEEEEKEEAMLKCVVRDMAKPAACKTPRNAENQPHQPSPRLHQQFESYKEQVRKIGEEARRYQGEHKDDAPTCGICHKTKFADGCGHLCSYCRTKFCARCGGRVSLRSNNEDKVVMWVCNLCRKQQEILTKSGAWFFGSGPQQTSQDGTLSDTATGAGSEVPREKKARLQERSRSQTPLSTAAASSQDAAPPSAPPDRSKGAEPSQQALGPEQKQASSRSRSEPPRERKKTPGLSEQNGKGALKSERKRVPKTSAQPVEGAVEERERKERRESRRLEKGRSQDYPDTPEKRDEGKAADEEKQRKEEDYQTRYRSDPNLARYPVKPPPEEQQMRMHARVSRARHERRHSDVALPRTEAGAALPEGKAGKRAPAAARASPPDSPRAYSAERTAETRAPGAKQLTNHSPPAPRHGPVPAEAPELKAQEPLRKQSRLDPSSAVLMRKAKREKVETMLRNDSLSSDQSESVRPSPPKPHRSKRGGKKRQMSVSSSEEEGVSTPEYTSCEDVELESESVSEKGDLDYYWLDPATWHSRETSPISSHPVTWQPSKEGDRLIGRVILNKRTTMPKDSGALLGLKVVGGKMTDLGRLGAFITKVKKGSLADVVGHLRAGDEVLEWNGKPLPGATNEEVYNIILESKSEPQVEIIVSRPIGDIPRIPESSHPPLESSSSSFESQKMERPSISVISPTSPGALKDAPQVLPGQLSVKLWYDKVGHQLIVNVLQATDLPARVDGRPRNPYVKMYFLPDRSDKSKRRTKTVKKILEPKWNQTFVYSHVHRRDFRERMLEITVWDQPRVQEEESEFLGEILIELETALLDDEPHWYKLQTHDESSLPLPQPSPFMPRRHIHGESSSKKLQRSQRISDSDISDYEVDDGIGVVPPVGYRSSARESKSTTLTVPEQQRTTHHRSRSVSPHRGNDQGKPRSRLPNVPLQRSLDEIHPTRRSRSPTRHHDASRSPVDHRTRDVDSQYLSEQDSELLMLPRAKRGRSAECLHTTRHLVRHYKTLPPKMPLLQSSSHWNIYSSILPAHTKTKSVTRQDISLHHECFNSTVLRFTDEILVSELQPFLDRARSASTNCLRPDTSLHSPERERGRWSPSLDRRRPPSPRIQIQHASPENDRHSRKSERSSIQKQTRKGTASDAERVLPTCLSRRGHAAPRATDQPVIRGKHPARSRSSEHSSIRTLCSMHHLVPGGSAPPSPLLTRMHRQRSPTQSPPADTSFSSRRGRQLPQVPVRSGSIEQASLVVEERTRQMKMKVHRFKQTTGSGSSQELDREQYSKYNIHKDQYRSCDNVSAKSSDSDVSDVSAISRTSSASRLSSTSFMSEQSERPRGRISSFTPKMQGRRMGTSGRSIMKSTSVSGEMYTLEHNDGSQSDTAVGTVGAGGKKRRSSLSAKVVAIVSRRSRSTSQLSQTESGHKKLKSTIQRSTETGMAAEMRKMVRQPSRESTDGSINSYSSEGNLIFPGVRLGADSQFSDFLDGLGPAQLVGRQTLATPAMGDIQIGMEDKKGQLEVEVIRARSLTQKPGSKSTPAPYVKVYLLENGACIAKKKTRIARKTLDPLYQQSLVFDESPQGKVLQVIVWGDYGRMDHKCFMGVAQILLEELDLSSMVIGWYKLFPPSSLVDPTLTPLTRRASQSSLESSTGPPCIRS

CC[C@H](C)[C@H](NC(=O)[C@H](CC(=O)O)NC(=O)[C@H](CCC(=O)O)NC(=O)[C@H](CCCNC(=N)N)NC(=O)[C@@H](NC(=O)CCCC[C@@H]1SC[C@@H]2NC(=O)N[C@@H]21)[C@@H](C)O)C(=O)N[C@@H](Cc1ccc(O)cc1)C(=O)N[C@H](C(=O)N[C@@H](CC(N)=O)C(=O)N[C@@H](Cc1ccc(O)cc1)C(=O)N1CCC[C@H]1C(=O)N[C@H](C(=O)N[C@@H](Cc1ccccc1)C(=O)N[C@@H](CO)C(=O)N[C@@H](CCCNC(=N)N)C(=O)N[C@@H](CCCNC(=N)N)C(=O)N1CCC[C@H]1C(=O)N[C@@H](CCCCN)C(=O)N[C@H](C(=O)N[C@@H](CCCNC(=N)N)C(=O)N[C@H](C(=O)O)C(C)C)[C@@H](C)O)[C@@H](C)O)C(C)C [DNAM-1] (Biotin-TREDIYVNYPTFSRRPKTRV-OH; C-terminus assumed)
Classification [1]: 5 (A450 nm of 4 more than 2× repeated)

CSCC[C@H](NC(=O)[C@H](C)NC(=O)[C@H](CCCNC(=N)N)NC(=O)CNC(=O)[C@@H](NC(=O)[C@H](Cc1c[nH]c2ccccc12)NC(=O)[C@H](CCCNC(=N)N)NC(=O)CNC(=O)CCCC[C@@H]1SC[C@@H]2NC(=O)N[C@@H]21)[C@@H](C)O)C(=O)N[C@@H](CO)C(=O)N[C@@H](C)C(=O)N[C@@H](Cc1c[nH]c2ccccc12)C(=O)N[C@@H](CCCCN)C(=O)N1CCC[C@H]1C(=O)N[C@H](C(=O)N[C@@H](CCCNC(=N)N)C(=O)N[C@@H](CCCNC(=N)N)C(=O)N[C@@H](CCC(=O)O)C(=O)N[C@H](C(=O)N[C@@H](CCC(=O)O)C(=O)N[C@H](C(=O)O)C(C)C)[C@@H](C)O)[C@@H](C)O [HPV E6 #35 (modified)] (Biotin-GRWTGRAMSAWKPTRRETEV-OH; C-terminus assumed)
Classification [2]: 1 (A450 nm 0-1)

A2AA_HUMAN (modified) (Biotin-HDFRRAFKKILARGDRKRIV; not fully specified)
Classification [3]: 1 (A450 nm 0-1) | Classification ([4]; PDZ SITAC-18, PDZ Domain 1): 4 (A450 nm 3-4) | Classification ([4]; PDZ SITAC-18, PDZ Domain 2): 4 (A450 nm 3-4) | Classification [5]: 1 (A450 nm 0-1)

KTMPAAMFRLLTGQETPLYI (Biotin-KTMPAAMFRLLTGQETPLYI) [MINT-2]
Classification [6]: 1 (A450 nm 0-1)
